Results as given in the DeepSol protein solubility set.

Assay: soluble on expression in E. coli; label from the status in PepcDB or PDB records

| Sequence | soluble on expression in E. coli |
| --- | --- |
| MGSDKIHHHHHHLISTANITMQFGPEPLFENISAKFGNGNRYGLIGANGCGKSTFMKILSGALAPTSGNVSITPGLKVGTLSQDQFAFEQYTVIDAVIMGDVQLWKVKQERDAIYAKADMTEEDGMRVGDLESEFAEMDGYSAESRAGEILIEAGIEESFHYGPMSQVAPGWKLRVLLAQALFANPDILLLDEPTNNLDIHTISWLETELNKRKCTMIIISHDRHFLNAVCTHMADIDYGELRIYPGNYEYFLAQSSLLREQLLAGNAKKSAEIEELQDFVNRFGANASKAKQASSRAKRMDKIKLDEVKSSSRITPSIRFAAGKKMHRQALVLENLGHGFDGELLFQGGDLILEAGAKLAIIGENGVGKTTLLRCLVNELIHNEGTIKWSENASIGYCPQDSTSDFDNDLTIMEWMDQWRQPKHNDLMVRAMLGRLLFTEDDANKKAKNCSGGEKNRLIFGKLMMQDINVIIMDEPTNHMDMEAIEALNNALKDFEGTLIFVSHDREFVSSLATRIIDIKDKKLINFQGTFDEYLSSQADIMARQHA | not soluble |
| MSKIVEVSKSPYAKLKTIPVGSVRVNGFMGKYFETLVNVTLPTQYDLLENTGRLDNFRIAAGKMEGSYKTLFPFDDTDVYKWAETVSFALANRKLPELEKILDSVIEEVKAAQDEDGYLGTYLSGDRKKERWTNLAWNHELYNAGHLIQAAVAHRRVTGKNTLFEVAKRFADHIYNTFGPEKKEGAPGHPEVEMALVELYRETGDRKYLDLARYFIYARGKGLASVPRNPGPEYFIDHKPFVELEEITGHAVRALYLCSGATDLYLETGDEKIWQALNRLWENFVTKKMYITGGAGSRHDWESFGEEYELPNRRSYAESCASIANFMWNFRMLLATGDGKFADVMEQVLYNGLLSGISLDGKHYFYFNPLEDYGRTRRQKWFDCACCPPNLARFIVSFPGYMYTTSDDGVQVHLYEKSTARLDFKGSVVEIEQETDYPWSGEVAFTIKTDIEEPFSIYLRLPSWADDFVLRVDGKAVIAKPQNGYVKLSQSWKGKHTVELSLPMKAVFIEAHPFVRDDLGKAAVKRGPVVYCIEQADNPDFHVWTLVLNSESLKEEKGKILDREAVFLKGTGRALDISEWEGKLYRKLSEVREKTVEFTLIPYHMWANREPGAMAVWLKR | soluble |
| MAVLSFSFGGEITLKKPPESLKKYYPPASEKFEFLNNMHTMSTAFYAVQLNINDENWEKAKEWAQKLVKTYRETAEMVPEWKDYFDFSKADAYLNAVSSKNVDAVIKTARELGQTCAKCHRDNEVAVKIYYHFPDFHSVKVEDPIEFMEMDLGDFMKKLANSLKATNIYISQGEYEKAKEHGINFVERARAVKETCTKCHTKEAEVEAITGKEYDQALKALENLFNAEKLDTQKVAQNMKKVTVTCYTCHNVHLIPAKIKEALAK | not soluble |
| MIEMKYILARATDEEIQKRGECGGAVTAIFKYMLDREIVDGVLTLERGDDIYDGIPVLLEDSDEIVSTCGSLHCAPTMFGDLISRYLNDMRLAVAVKPCDAMAIKELEKRHQIDPQRVYMIGLNCGGTLSPVSAREMIETFYEIDPDDVVREEIDKGKFIVELKDGSHKEISIDYLEEEGFGRRENCQRCELMVPRNADIACGNWGAEEGWTFIEVNTDRGEEIIEGARREGYLEVKEPPMKMIEIREKIENAMIKMARKFQDKYLEDEYPSLDDWDEYWKRCINCFACRDLCPICFCRECELEKDYLLESDEKAPDPLTFQGVRLSHMGFSCINCGQCEDVCPMDIPLARIYHRIQRKYRDRTGFTAGVSEELPPMYSGEKDLEHHHHHH | soluble |
| MPENSQPTTTEKGSEYLEQLANEAEELRKKLDQERHKLNDIPIQQAAERLDVMGALGVKQRRILKGHVGKVLCMDWSLDKRHIVSSSQDGKVIVWDGFTTNKEHALTMPTTWVMACAFSPSSQMIACGGLDNKCSVVPLSFEDDIIQKKRQVATHTSYMSCCTFLRSDNLILTGSGDSTCAIWDVESGQLIQNFHGHTGDVFAIDVPKCDTGNTFISAGADKHSLVWDIRSGQCVQSFEGHEADINTVRFHPNGDAFATGSDDATCRLFDLRADRQVCVYEKESILFPVNGVDFSLSGRILFAGYGDYRVGVWDSLKCARHSVLYGHENRISCLRTSPDGTAVCSASWDCTIRIWA | not soluble |
| MGLSPHVEALQVLQTALQTGEGFIKVTGEVGTGKTLICRKLINELPQGFHCAYLPNPYLTPAELRWAVANELGLKYTSEIDQQQLTGLIQQQLLALSTHGHAIVLVLDEAQALPDESLEALRLFTNLETESRKLLQVVLFGQPELDERLKRQAFRQLRQRITFSYNLRPLEHHHHHH | not soluble |
| LTPILGYGRVRAKVSADIDFTSYEQTQELFNPELSALRSEQTMQESRNASNEASGVPGTLSNTPQPNSSLGQKNNPQQNATPNNLPQQTSSDQMQAKDVRMQTTKNFELDKTISHTKNQPGTIKRLSVAVLVDNRPVMNDKTKKLEKKPLTKEEIEQIKLLVSDAIGLNVKRGDSLNVINSSF | not soluble |
| MSLDNVIDEVVWVIGDEAILKSDVEEARLAALYEGRKFDGDPYCVIPEELAVQKLYMHQAVLDSIEVPEAEVIQRVDYQISNYIQALGSRERMEAEFNKTSTQIREAMRENARDGLIVQRMQQKLVGDIKVTPAEVRRYFKELPQDSIPYVPTQVEVQIITQQPKIPVAEIEDVKRRLREYTDRINKGESDFSTLALLYSEDRGSAIKGGETGFMGKGQMVPEYANVAFNLQDTKKISKIVESEYGFHIIQLIEKRGDRINTRHILLKPKVSDKELDEANARLDSIANDIRSDKFTFDQAASALSQDKDTRNNHGLMQNPQNQTAKFEMQDLPQEIAKVVDKMNIGEISKAFTMVNPKDGKEVCAIVKLKSRINGHKATITDDYQNLKEIVLDKRREEALQKWIVEKQKHTYVRINPAWQRCDFKYPGWIKKEGHHHHHH | soluble |
| MSMKQAEFIQAKGYQARVTRTARAKTASIKVEEGMVSVVVPKALPIERIERILQEKHQWIIDKIALHKGLITSSEKQFVSGEAMPYLGRNYRLKVHAGSFEPVKLVQGRLVVIVPEGSVRSNLVREALIGWYKRSALLKLREKVRRYAKVIGVTPKSVNIKTFKSRWGSCNPKGDLDFNWIIVMAPNRIVDYVVVHELCHLKQLDHSPLFWKEVERVMPDYAECKEWLKNNAPKLTFLEHHHHHH | soluble |
| MANLVYSPKDILQKEFKTKMMNGYDPIEVDEFLDNVIKDYEAYNKELLSLQEENSRLMAKLDQLSKAQPTPRVAQEVPKSAAVTNFDILKRLSNLEREVFGKKLDETPSTPVTPSAPSMPAEPANHDVDNAQTRQF | not soluble |
| MAHHHHHHMEDEKVGTANNDEKVTMSMPEEYMPKNISEILIGAVEEDRTYALKGDEPCDSYIKLGEIVHGTNEKTTQFTFPKNKVLCVQLEAINGNGYLWALLGVHKEKPQINPEEFPRKKITKSFFTNEISVTQPKAIQKNTSNNGGDISPNSSGYGKPRGSEHLGGFVGGASTLQSMVKAHKAGTFYIVYSYYRPFDPTASANTKILQLTVS | soluble |
| MALDITDESEIYNLDSLVSYSQGGCKAEHDWRIGTEHEKFPFYRGDFRPVPYEGSRGIRALLEGMQKALGWEPILDEGNIIGLVGSVGQGAISLEPGGQFELSGALLKTIGDTYCEVIEHLALLKKISEPLGIGFLGIGASPKWTLTETPRMPKSRYRIMANYMPKVGHSGLDMMYRTSTVQVNLDFSSETDMRRKMQVSMKLQSIATALFASSPFTEGRPNGFLSWRSEIWCDTDNQRTGVLPFIFSERFGFADYVEWALDVPMYFVVRDGRYYDCTHITFRQFMNGALRGQVANATPNMGDWINHLSTLFPEVRLKRFLEMRGADCGSLKRICALSAFWVGILYDSEALNEAEALTKDWCFEEVLDMRKRVPKEGLKTPFRQTIILEIARQAVAISHKGLKNRRQYASNGLDETSFLAPLEEVIAMGQTDADKFLSLYHSIWDKSVEPVFLECVY | not soluble |
| MKKWMAGLFLAAAVLLCLMVPQQIQGASSYDKVLYFPLSRYPETGSHIRDAIAEGHPDICTIDRDGADKRREESLKGIPTKPGYDRDEWPMAVCEEGGAGADVRYVTPSDNRGAGSWVGNQMSSYPDGTRVLFIVQLEHHHHHH | soluble |
| GPGSMTGPFRYVITDMDGTLLSPDHFVSDYTRDTLKTLVHEHGVIPILATGRSYADVRIIADNLKAYIWCDGTAAPGARAPASPSRAPVIYLITSNGATVHNGVTHEVVFRTSIDPALAEKLLQLLPSDEEVVNTNAYQNDDWVCRIDWPKMMAVSKESGIRFIHVPHPLPSSSCALGSAAASPDAAARGIAIGDYTGISKIFFITDDAARLAALADEVHAIAKAHGGAPVSLTFSMSDCMDIMANGVTKGEALKRLFGAILPSRDGVDVVADALAHAIAFGDGLNDAEMLASVGKGCVMGNANPKLIAQHPELEVILTNAEDGVAKKLRSAFHLPL | soluble |
| MTVETFHPKQTTTLETPAKTLEAASADSVNTGNVATGNRIGFVSLGCPKNLVDSERILTQLRIDGYEVTNSYDNADLVIVNTCGFIDAAVEESLDAVREALEENGKVIVTGCLGAKENQIREVHPDVLEITGPHSYEAVLKHVHKYVPKPEHNPFTSLIPQTGVKLTPKHYAYLKISEGCDNRCTFCIIPALRGDLDSRGAGSVLDEAKRLVEAGVQEILVVSQDTSAYGKDKGGRTDFWNGMPVKQDITSLARQLGKMGAWVRLHYIYPYPWVDDLIPLMAEGLILPYLDIPMQHASPRILKMMKRPGRVDRQLEAIQRWREICPDLVIRSTFIVGFPGETEEDFEMLLDFLREARLDRVGCFKYSEVEGAVANTIAELISEEVKEDRYHRFMEVQAEISAERLARFVGRTMDILIDDVDEEGAIGRSFADAPEIDGMVFINGETELEPGMLVRAVITHSDEHDLWAELVDADAEDEVEALEHHHHHH | soluble |
| MEAHNVEISTRLTPEMKNQGTIELLYKALQQGDTSTVTKVVASDVEWWFHGPHDCQHMMRLLTGEPPRQVSFRFEPSSVQVVVPGHDCVIAEGWEGSRVYWVHVWKLKDGVVTELREYFNTWLTVTDYSLGAVGWDMGRCTVWESVPRDLARGSLPSLLLAI | soluble |
| MNIPTTTTKGEQAKSQLIAAALAQFGEYGLHATTRDIAALAGQNIAAITYYFGSKEDLYLACAQWIADFLGEKFRPHAEKAERLFSQPAPDRDAIRELILLACKNMIMLLTQEDTVNLSKFISREQLSPTSAYQLVHEQVIDPLHTHLTRLVAAYTGCDANDTRMILHTHALLGEVLAFRLGKETILLRTGWPQFDEEKAELIYQTVTCHIDLILHGLTQRSLD | soluble |
| MSLKIIVIGGGAAGMSAASKAKRVNPDSEVIVVESGSYVSYAECGIPYYLQGVVGHIEDLLHYPLSEFTEKRGIKVLLHTTVTRIDTLHSSVLLNNGDVLKYDRLIIATGSRPKPIDVISDRTISIRSLESAMRARNLIEKSKDVTIVGAGVLGVELASVLAESGKNVKVISKYDRVLPQLDEDIGKIFHEYFSSRIDVQKQSSLKSAEEDRGRVKITTSVDDHECDAVIYATGIIPNSEIAVEAGIKTGDRNAILTNGHMETSEPGVYAAGDVATVRNIVTGLDEMMPLAQIANKAGRVAGSNASNSEMVFPGALGTTLVKVFDYEVGFTGINESRAKALGIPYEKTLIKAKSRANYYPGKQDIYVKIIYGKNDKRLLGAQVIGTDGAAWRLNTIATAIFGGFKVSDLFYDDLGYTPPFGPVWDSIVIAGSVSMREGHHHHHH | soluble |
